Measured values: article PMC3230378 (The EMBO Journal, 2011)

T1: mouse NGL3_(LRR–Ig) (mouse, UniProt P0C192 39-455)
T1 sequence (looked up): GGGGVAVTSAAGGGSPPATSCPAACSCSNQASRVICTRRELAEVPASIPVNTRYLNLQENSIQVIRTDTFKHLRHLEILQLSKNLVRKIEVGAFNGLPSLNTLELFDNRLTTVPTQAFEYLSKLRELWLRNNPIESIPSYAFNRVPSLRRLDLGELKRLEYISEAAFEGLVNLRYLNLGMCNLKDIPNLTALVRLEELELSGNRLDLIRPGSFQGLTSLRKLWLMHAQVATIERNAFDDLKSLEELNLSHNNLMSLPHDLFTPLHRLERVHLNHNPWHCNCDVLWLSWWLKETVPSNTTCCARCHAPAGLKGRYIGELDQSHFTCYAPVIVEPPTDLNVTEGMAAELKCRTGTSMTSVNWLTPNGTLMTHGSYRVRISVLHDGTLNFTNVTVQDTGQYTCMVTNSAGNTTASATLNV


Experiments:
Experiment in all cases: SPR
[1] = biological target: NGL1-r1 mutant (human NGL1_(LRR–Ig) with the loop I binding region of NGL2) (human) (UniProt Q9HCJ2)
[2] = biological target: mouse NGL3_(LRR–Ig) (mouse) (UniProt P0C192)
mouse NGL3_(LRR–Ig) = biological target: T1, mouse NGL3_(LRR–Ig)

| fold decrease of binding against WT NGL1 [1] | Kd [2] | Kd (mouse NGL3_(LRR–Ig)) | Molecule |
| --- | --- | --- | --- |
| > 10 fold | > 100 µM | – | human NetrinG1_(Lam–EGF1/4), wild type (domain or fragment) |
| – | – | > 100 µM | human NetrinG2_(Lam–EGF1), wild type (domain or fragment, UniProt Q96CW9 18-345, looked up) DYDICKSWVTTDEGPTWEFYACQPKVMRLKDYVKVKVEPSGITCGDPPERFCSHENPYLCSNECDASNPDLAHPPRLMFDKEEEGLATYWQSITWSRYPSPLEANITLSWNKTVELTDDVVMTFEYGRPTVMVLEKSLDNGRTWQPYQFYAEDCMEAFGMSARRARDMSSSSAHRVLCTEEYSRWAGSKKEKHVRFEVRDRFAIFAGPDLRNMDNLYTRLESAKGLKEFFTLTDLRMRLLRPALGGTYVQRENLYKYFYAISNIEVIGRCKCNLHANLCSMREGSLQCECEHNTTGPDCGKCKKNFRTRSWRAGSYLPLPHGSPNACA |
